Measurements published in a protein production outcome set (Wang et al. 2014).

Assay: label from the status in PepcDB records
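Also: failed if final PepcDB status was selected cloned or expressed and not failed if soluble or beyond.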

Sequence	protein production
MIGPENCNSVSEPIAYVIILAGGRSSRMGYDKAQVMVDGRRLIDLCLESIASVHAHPIVVSGQDLQLTAAVTQVMEEPAFGGPVAGIAAGMRCCDTKAGLIGVIAVDAPRSGNYLNQLRRVVLTHPEVGVAHAVVEGYDQPLLAVWRYEALTQALHALGSPRNVAAKRLLRSATTPVIAVPVDSSARDYDTVAELSALGRVRLRLEHHHHHH	failed
MKLATKKNGTRDGLLMVVSKDLTRCVPATEVFHPRNLAPTMQVALDNWEAVAPQLEEIYTALNNGTVAGFEEFEAHYCESPLPRAYQWADGSAYVNHVELVRKARGAEMPESFWTDPLMYQGGSDAFIGPCDNIEFASDEWGIDFEGEVAVVTGDVPMGASIAEAQESIRLIMLVNDVSLRGLIPAELAKGFGFFQSKPSSAFSPVAVTPDELGDEWYENKVHLPLVSTYNHKPFGRPNAGVDMTFDFADLIVHATKTRPLSAGAIIGSGTVSNKQGTDHGTSIEEGGVGYSCIAEVRMIETIRDGKPTTNFMSFGDSIKLEMFDVEGNTIFGAIDQQVSQYLKH	failed
GVKYTIAVLGPQGSFSEEMALKLVGSRVPLRYCSTTDEIIKLVESGEVDYGLVPIENSVNGTVLPVIDALLNHDVEVFGEAKLEVNHCLVAKRKIELKEIKTIYSHPQAVAQCMGFINNYLPSVAIRYTTSTSDAARMLDDYSAAIMSENAARFYRLHVLRKGIQDLKGRNITRFYLIRRRSG	failed
MKRSNTVRLVVSKEQHEVLKRLGIATAKCWNEVNWLRMKQYKEGKRVDFGITEKAVYEKYKSVLRVNAQQVARKNAEDWRSFFSLTREKKEGKLPSWFKPRPPGYWKDGRLIVIIRNDRYTVDERNRVVYLKDFNLSLKFKGRLKWHGKQGRLEIIYDEARKIWYAHIPVEVETEKVKEGIKASIDLGIVNLATVYVEDGSWYLFKGGSALSHYENYSKRITIVQKTLHRHRQRRSRRLKLLHEKRSRFLKHALNSMVRRIMEILREKNVGEVVVGYPKEIAKHHGNKLTVNFWNYSYIIKRLEDIGEELGIKVITVDEAYTSKTCSLCGEAHEDGRVKRGLFVCPRTRKAINADLNGAINILHIPESRGSEGNFHRGIGVIGLKTQPVTLSDLSKIKNHYNYSISDYTILHYIQPLEHHHHHH	not failed
MPDVDKIIQFKREILDNLSNERLSKESFGLSMDVKLPEPGESIVPWIGEDLALDETDDELDLNFMLDALENEDKLSYSDIFNDNLPLSGSNLRVDVDSELSTLNNDFDVSSSDSFENNIDKVLDDNSIDLEIASKLDFDNLINSPELSSEELINNQGNNNFFEANNDSSVLGDSNFLQSNEFNIDDAVNGKNQTDEQSEMFVGDSLNLSADEDDFENVIDDFKFLEYDQNANFKRFEFKVNYPLFLKHLNSYPRNLRIAIAEALTKENVSRFKLEALIDLVEKNKKRLKFIAKFVGDIVGRSIKLPVIYFKAEEFSKLQQKLSYRVSRALLPLIKIASFFVVLVLVSLYLIVDVIFFYVASESKYKEGIESIYANKRDLAKSIFRDAYYIRPDDKWFINYAKAFEDVRDFDSAEEKYEELFTIEPFSKNSTNRRRKKFNKEGYISYASMKIGLGEHSEANSILDEVISYDLYDYDALVLKGDNYFKWAKTNSNYYKDSINSYTVVLSKYGQKKEILFKLFNAYIEANLDTESDNVNNFIKSNEILDIDEVVYTKYAKKLVDKYISFVTYNQRANNLAINLNYLNGQTNLLNKEFSDFKRNDGRTIFKLDNNVNMNSEIEYILRKILNKNPNYDKALFESGRYSYYIGDFKKAEVYLLKALNSFRHKNSIEDAGDKILAYKILADIYEKTRDSLRASNIIGLALSDYSFYKKHNLIKGSKEISSIYEKQGDILRSLNDFKSAISSYKLAINEGVDYPDVYYKVGLLSYRENNYDDALKYLFKVESMAGFSSSNEVLNTIALTLYKIGDFLASRSYYLRVMQNLELEKANVLNFNPKENDYHKTLLLKEIETYNNLGVVEVMASFSSIRDTKLFNSGVSNLSESAKIFDILNRDEDMVKSVKKDLASLNLRNIFKNSFSKSNVLFYENLSEKL	failed
AEIFTTLSCEPDIPNPPRIANRTKNSLTLQWKAPSDNGSKIQNFVLEWDEGKGNGEFCQCYMGSQKQFKITKLSPAMGCKFRLSARNDYGTSGFSEEVLYYTSGC	not failed
MSSLLPEKWGEALERVHDKVGHFLTRVMPWKKQEHFPERITADTLPAFMQSGGPLLDMHETADELIIRAEVPGLKNDDFSVGIVGRRLTIKGEKNIVRERKGGDGCLISECRYGSFARTLQLPYEIDEKAIAADLKHGVLTIRLPKPEKGRHARYRVPIS	failed
MTASVTASVTAPETAPVPIVLAGARGHGRWHLDNIRRLQDRGLVRLAGICELTPLAEEELDGLGVPEQSADFGSLLDATGAAIAVICTPIPTHTDLALTAAERGVHLLLEKPPAPSFAEFRRMADGVAAAGVVCQIGFQSLGSGAVPGIRKLIAEGALGTVAGIGAAGAWARDEAYYRRAPWAGKRRLNGVDVIDGVLTNPLAHAVATALALDGSTRAEDVTDIETELLRANDIESDDTSCVRVTTKSGGRITVAATLCAEEPDEPYVLVHGDRGRITFWYKQDRVLVQRSGHGPQEIEYDRTDLLENLVGHLTHGAELLVTPESTGAFMKVVEAIRQAPDPVALPGDAWELIPGENRRVVRGVDGLVAAAADTLALYSELGASWALPNEVSSR	failed
MLREPGAADRAAFVELLASPEVHTYLGGPRPRAELERELPGTPERWPGSFVVDLDGEMIGQVLLRRTREHCCPVAVGKVDLGYLFLPRAWGLGYAAEACAAALDWLDCVLPGEPVVLNTQTANTGSMRLAAKLGFTEVERFRAWDAEQWLGLRPPLT	failed
SNDQYHRAARDGYLELLKEATRKELNAPDEDGMTPTLWAAYHGNLESLRLIVSRGGDPDKCDIWGNTPLHLAASNGHLHCLSFLVSFGANIWCLDNDYHTPLDMAAMKGHMECVRYLDSIAAKQSSLNPKLVGKLKDKAFREAERRIRECAKLQRRHHERMERRYRRELAERSDTLSFSSLTSSTLSRRLQHLALGSHLPYSQATLHGTARGKTKMQKKLERRKQGGEGTFKVSEDGRKSARSLSGLQLGSDVMFVRQGTYANPKEWGRAPLRDMFLSDEDSVSRATLAAEPAHSEVSTDSGHDSLFTRPGLGTMVFRRNYLSSGLHGLGREDGGLDGVGAPRGRLQSSPSLDDDSLGSANSLQDRSCGEELPWDELDLGLDEDLEPETSPLETFLASLHMEDFAALLRQEKIDLEALMLCSDLDLRSISVPLGPRKKILGAVRRRRQAMERPPALEDTEL	not failed
MRRLKRDPLERAFLRGYQNGITGKSRDLCPFTHPTTRQSWLNGWREGRGDNWDGLTGTAGLQRLNQLQHVLEHHHHHH	failed
MVFLVPFDGSPLADAALNRAVTYAKALDEDVVAVAFIPTGADYAERRRRVDPTEDFAAETAADDLRRKIEEATDDSELRYDDVSAHSTSELSTTIRQTARDVDANVVFLGSDDTEDIVVPIGEVTDGEDYDVHIVRRT	failed
MSIITRLFNNSDFEKLNQLCKLYDDLGYPTNENDLKKRLKKITNHDDYFLLLLIKENKIIGLSGMCKMMFYEKNAEYMRILAFVIHSEFRKKGYGKRLLADSEEFSKRLNCKAITLNSGNRNERLSAHKLYSDNGYV	failed
MTAPLHLDSLFPSLDAIPEQYRPDAPIEQRDYLVDGQLRHWDGPLAPVRSPVFLAEADGERQVILGSTPLLDADAALAALDAAVRAYDHGQGLWPNLRVAERIQHVERFLARMREQREAVVKLLMWEIGKNLKDSEKEFDRTCDYIVDTIEALKELDRHSSRFELEQGTLGQIRRVPLGVALCMGPYNYPLNETFTTLIPALIMGNTVVFKPAKFGVLLIRPLLEAFRDSFPPGVINVIYGRGRETVSALMASGKVDVFAFIGTHSGASDLKKLHPRPHRLRAALGLDAKNPGIVLPQVDLDNAVNEAVTGALSFNGQRCTALKILFVHESVLRPFLDKFSARLASLKPGMPWEPGVALTPLPEPGKVDYLEGLLNDALAKGARVVNAGGGEHRQSFFYPALLSPVSPDMRLYHEEQFGPLVPVVPYRELDEVIDYVLRSDYGQQLSLFGNDPAQIGRLVDAFANQVGRINVNAQCQRGPDSYPFNGRKNSAEGTLSVHDALRVFSIRTLVATRDTEANKTLVSEII	failed
MTAEVLIGDGDVRLSPHPLRAIVLGEVHARPFTALSLPARVLHFAFDTSGQRAAADRAAMISFCESRGLQPPPPGEKHHRANFGTTTLRWEQHSEFTTYTWEIPADPAGVPFHPEASSLASPMRLLPQPGPLLVAVDLHAMPEDPPRTSPERLFDRASLAVAENSDGAALFATDFQPGPSGFVRVLVIDRGMSAERAGALVQRVLEVETYRTLALLGLPEAQRLAPSIAASERRLAEVTAEMRRAGDLANNNKLLQELTELAAEVEAGAAASLYRFGASRAYDEIMNGRLATLGERKVGGLPTWSSFLARRMKPAMRTCATTEARQSDLSLKLARAANLLRTRVDVEVEQQNQELLKSMNARTRLQLRLQTTVEGLSTAAITYYVVGLFGYMVKGAAEAGRLKIDPNLLTAGFVPIAALVIWWTIRRIRKKHIPDVD	failed
RDVAFTADGTTAYGTLHVPEHRAGQRLRAALLLPGSGPTDRDGNQPPASLPDTLAQLADTLGKDGVATLRFDKYGTGRTGLGTYQDRPEELDYPAFVRQARAGYESLRDQPETDPHALLVVGHSEGAMTGLLLGGTVSPRPAGLALLQPQAIRMLDLVALQLRAQIAEATRQGQFTPEQQRTVNAAVDAAVTALRERRPVDTADLPSPIARLFEAFQGPNARFVRSDDAVYPPDTAFALRPGTKVLLTCGTHDVQVPCDTTNVLTTALRHAHAHGPGRVVLPGVDHLMHDTDHPATLTPPVLDSL	failed
SRPATPPVTPPSREGHVADLDRFPQDLRVYAMKAGADRQLLPFTEQAAQDARWNRRFFAPWRMTRISVPVKDVAAPFGTDGRPRGYAENLLPWDVTRWGALASGAALDLYPSQAWKGIVVSNSALREVPTLRPMFTAPTRAGQGYPFDMFQRTAVWMGTPVFVGHATADRAWLYVETAFAAGWMPAADVARVDDAFMTRYESGSLAAILRDDTSLNGADGTHLATAHIGTVLPLSGASQVGRTVLVPVRAPEGHAVVVPVLLTSGEAAQKPVPLTPGNMAELGNRMMGQPYGWGGLYEDRDCSSTLRDLFTPFGLWLPRNSASQAKAGRYVDIAKLDADDKEARIVAEGVPFMTLLWLRGHITLYLGLHEGQAAMFHNMWGIRTHRGGVEGRYVLGRAVVTSTRPGLDVPGNDNADGLLGRMQGMSILPGGAQ	not failed
MENEKILNPIIIQRADPMIYKHNDGYYYFTASVPEYDRIEVRKAKTIEGLRNAEPVDVWRRHESGEMSNLIWAPEIHFINGAWYIYFAAAPDKNIEDDTFNHRMFVIQNENENPFTGNWVEKGRIKTAWESFSLDATIFEHNEKLYYVWAQQDINIKGHSNIYIAEMENPWTLKTKPVMLTKPELEWEIKGFWVNEGPAVLKKNGKIFITYSASATDVNYCIGMLTAEENSNLLDKNSWTKSQTPVFKTSMENHQYGPGHNSFTVSEDGKHDVIVYHARNYTEIKGDPLYDPNRHTRAQIINWREDGTPDFGVPEVDSLEIETPVKA	not failed
MLDAILSNYLYYPSILAFLFGVLMGAKYRHKIGNIFGYLILTVVIAYFLKAFPYYDLLPLSCSYLSAVIGIIIGNRLFGGKMI	failed
MSLNVKNDFSILIIEDDKEFADMLTQFLENLFPYAKIKIAYNPFDAGDLLHTVKPDVVMLDLMMVGMDGFSICHRIKSTPATANIIVIAMTGALTDDNVSRIVALGAETCFGKPLNFTLLEKTIKQLVEQKKATSEGHHHHHH	not failed
MEQNSYVIIDETGIHARPATMLVQTASKFDSDIQLEYNGKKVNLKSIMGVMSLGVGKDAEITIYADGSDESDAIQAISDVLSKEGLTK	not failed
MSEEEQGSGTTTGCGLPSIEQMLAANPGKTPISLLQEYGTRIGKTPVYDLLKAEGQAHQPNFTFRVTVGDTSCTGQGPS	failed
MNRLDQLGIRINLICNVFDKWIGQQDLNYNLFTVLYTLATEGSRTQKHIGEEWSLPKQTVSGVCKTLAGQGLIEWQEGEQDRRERLLSLTEKGKVHAAPLTENAQEFSDKVFSTFGDKRTTRLFADLDALAEVMEKTISENKK	failed
